# Numbering of substitutions follows the chain as printed.
# Columns and labels:
# [1] = tested on: T1, recombinant pladin (plasma anti-diabetic nucb2 peptide)
# T1 sequence: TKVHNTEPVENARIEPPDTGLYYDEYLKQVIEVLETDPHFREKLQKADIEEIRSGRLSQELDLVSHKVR
# [2] = tested on: T2, pladin mutant A5 (Lys13→Ala)
# T2 sequence: T1 sequence with R13A
# [3] = tested on: T3, acetylated rPladin
# T3 sequence: T1 sequence
# [4] = tested on: T4, pladin mutant A4 (Lys28→Ala)
# T4 sequence: T1 sequence with K28A
# [5] = molecular target: T5, recombinant nesfatin-1 (UniProt P81117)
# T5 sequence: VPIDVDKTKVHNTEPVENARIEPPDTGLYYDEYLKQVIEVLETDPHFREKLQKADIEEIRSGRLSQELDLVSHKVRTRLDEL
# Chain of plasmin (P00747 20-580): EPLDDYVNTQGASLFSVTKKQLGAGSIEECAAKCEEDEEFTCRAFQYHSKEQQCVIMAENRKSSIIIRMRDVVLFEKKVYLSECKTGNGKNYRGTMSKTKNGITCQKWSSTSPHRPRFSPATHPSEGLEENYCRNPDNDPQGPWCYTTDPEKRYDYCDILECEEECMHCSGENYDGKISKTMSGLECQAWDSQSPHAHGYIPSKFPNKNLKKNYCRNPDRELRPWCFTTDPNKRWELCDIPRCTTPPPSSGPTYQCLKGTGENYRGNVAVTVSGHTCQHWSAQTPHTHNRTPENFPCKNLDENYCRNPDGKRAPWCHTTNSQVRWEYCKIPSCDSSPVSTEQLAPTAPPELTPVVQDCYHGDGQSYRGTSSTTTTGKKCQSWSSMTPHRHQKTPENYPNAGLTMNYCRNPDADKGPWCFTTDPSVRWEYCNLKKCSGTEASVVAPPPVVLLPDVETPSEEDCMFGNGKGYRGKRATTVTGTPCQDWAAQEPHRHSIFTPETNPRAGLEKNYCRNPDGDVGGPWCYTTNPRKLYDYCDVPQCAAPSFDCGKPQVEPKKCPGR
# Chain of plasmin (P00747 581-810): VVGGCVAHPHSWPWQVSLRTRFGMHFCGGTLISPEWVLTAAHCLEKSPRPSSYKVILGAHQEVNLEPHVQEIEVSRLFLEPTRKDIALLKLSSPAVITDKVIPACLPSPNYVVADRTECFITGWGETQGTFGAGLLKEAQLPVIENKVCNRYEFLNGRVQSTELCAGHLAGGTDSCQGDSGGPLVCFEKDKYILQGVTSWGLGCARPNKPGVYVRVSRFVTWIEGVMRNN
substance,measurement,setting,value
plasmin,degradation on incubation with plasmin in vitro,[1],"when rPladin was incubated with plasmin, it was rapidly degraded"
same,plasmin proteolysis in vitro,[2],resistant to plasmin proteolysis
same,plasmin proteolysis in vitro,[3],resistant to plasmin proteolysis
same,plasmin proteolysis in vitro,[4],resistant to plasmin proteolysis
same,digestion by plasmin in vitro,[5],Nesfatin-1 was completely digested by plasmin within 2 hours

# Source: patent US20100235935
